Source: patent publication US20030172388A1 (University of Texas, published 2003)

Columns and labels:
PCNA = target: T1, PCNA (UniProt P12004 1-261, limits assumed); assay: in vitro pull-down with anti-HA antibody and Dynabeads, [35S]-labelled proteins
T1 construct: In vitro translated, [35S]Met-labelled
Text: (§1) In vitro pull-down assay. Radiolabeled proteins for use in an in vitro binding assay were generated by a TNT Quick Coupled Transcription/Translation System (Promega, Madison, Wis.) according to the manufacturer's instructions, using [³⁵S]methionine (Amersham-Pharmacia, Piscataway, N.J.) as labeling agent. DNA templates were either circular plasmids or gel-purified PCR products containing a T7 RNA polymerase promoter. The in vitro translated, influenza hemagglutinin-tagged Fortilin (Fortilin-HA) or its mutants and another in vitro translated protein namely, MCL1, Bcl-xL, Bak, Bax or PCNA, were added to Buffer A (50 mM HEPES, pH 7.5, 70 mM KCl, 0.5 mM ATP, 5 mM MgSO₄, 1 mM DTT, 0.001% NP-40, 50 μM MG132, 2 μg/mL BSA, 2 μg/mL aporotinin, 0.5 mM PMSF and protease inhibitor cocktail [Sigma]), and allowed to form complexes at 4° C. for 90 minutes. Fortilin-HA or its mutants were then pulled down with rat anti-HA antibody (Clone 3F10; Roche Molecular Biochemicals, Indianapolis, Ind.) and sheep anti-rat polyclonal antibody conjugated to Dynabeads™ (M480; Dynal USA, Lake Success, N.Y.). Immune complexes were then washed 5 times with Buffer A and once with Buffer B (Buffer A supplemented with 0.01% NP-40). Finally, precipitated proteins were eluted into SDS gel loading buffer (50 mM Tris-Cl, pH 6.8, 100 mM DTT, 2% SDS, 0.1% bromophenol blue, and 10% glycerol), boiled for 5 minutes, subjected to 12% SDS-polyacrylamide gel electrophoresis (SDS-PAGE) and visualized by fluorography and imaging with a phosphoimager system (Bio-Rad, Hercules, Calif.).

Bak = target: T2, Bak (UniProt Q16611 1-211, limits assumed); assay: as above
T2 construct: In vitro translated, [35S]Met-labelled
T2 sequence (looked up): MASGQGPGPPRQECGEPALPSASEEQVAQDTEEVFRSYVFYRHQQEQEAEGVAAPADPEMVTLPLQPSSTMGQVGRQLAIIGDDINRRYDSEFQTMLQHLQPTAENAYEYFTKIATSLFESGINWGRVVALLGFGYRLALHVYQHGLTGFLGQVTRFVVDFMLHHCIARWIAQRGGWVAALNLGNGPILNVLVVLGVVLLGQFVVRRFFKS
Text: as §1

Bax = target: T3, Bax (UniProt Q07812 1-192, limits assumed); assay: as above
T3 construct: In vitro translated, [35S]Met-labelled
Text: as §1

[1] = target: T4, MCL1 (Myeloid Cell Leukemia 1) (UniProt Q07820 1-350, limits assumed); assay: as above
Text: as §1

[2] = target: T4, MCL1 (Myeloid Cell Leukemia 1); assay: in vitro interaction assay with Fortilin deletion mutants
Text: as §1, with “Finally, precipitated proteins were eluted into SDS gel loading buffer (50 mM Tris-Cl, pH 6.8, 100 mM DTT, 2% SDS, 0.1% bromophenol blue, and 10% glycerol), boiled for 5 minutes, subjected to 12% SDS-polyacrylamide gel electrophoresis (SDS-PAGE) and visualized by fluorography and imaging with a phosphoimager system (Bio-Rad, Hercules, Calif.).” left out

T4 sequence (Q07820 whole entry): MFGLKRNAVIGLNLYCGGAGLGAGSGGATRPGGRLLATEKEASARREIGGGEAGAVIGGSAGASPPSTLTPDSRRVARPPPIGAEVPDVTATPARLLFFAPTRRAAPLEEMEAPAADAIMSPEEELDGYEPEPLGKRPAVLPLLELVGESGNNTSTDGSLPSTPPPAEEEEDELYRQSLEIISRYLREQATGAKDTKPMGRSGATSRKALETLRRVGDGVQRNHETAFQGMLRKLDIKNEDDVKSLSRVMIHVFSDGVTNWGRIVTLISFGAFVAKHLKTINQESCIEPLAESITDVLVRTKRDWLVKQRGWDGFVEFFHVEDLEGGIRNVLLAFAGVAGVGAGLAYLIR
T3 sequence (Q07812 whole entry): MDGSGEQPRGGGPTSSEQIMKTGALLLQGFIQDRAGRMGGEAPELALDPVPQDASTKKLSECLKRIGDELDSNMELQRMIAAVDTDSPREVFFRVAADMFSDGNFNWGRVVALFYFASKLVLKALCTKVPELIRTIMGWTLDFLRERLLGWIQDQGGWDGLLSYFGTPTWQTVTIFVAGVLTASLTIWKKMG
T1 sequence (P12004 whole entry): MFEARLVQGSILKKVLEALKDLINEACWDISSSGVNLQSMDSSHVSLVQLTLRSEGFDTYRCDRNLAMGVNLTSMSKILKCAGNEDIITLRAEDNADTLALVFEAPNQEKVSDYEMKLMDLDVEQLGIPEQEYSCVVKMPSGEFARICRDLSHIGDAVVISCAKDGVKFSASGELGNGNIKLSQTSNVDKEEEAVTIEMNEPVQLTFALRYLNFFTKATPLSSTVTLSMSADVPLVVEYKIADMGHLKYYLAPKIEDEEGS

Row | Binder | binding result (PCNA) | binding result (Bak) | binding result (Bax) | binding result [1] | binding result [2]
1 | influenza hemagglutinin-tagged Fortilin (Fortilin-HA), full-length, amino acids 1-172 (other, not shown: small tags and cut ends, also called wild type Fortilin; wild-type fortilin) MIIYRDLISHDEMFSDIYKIREIADGLCLEVEGKMVSRTEGNIDDSLIGGNASAEGPEGEGTESTVITGVDIVMNHHLQETSFTKEAYKKYIKDYMKSIKGKLEEQRPERVKPFMTGAAEQIKHILANFKNYQFFIGENMNPDGMVALLDYREDGVTPYMIFFKDGLEMEKC | no binding | no binding | no binding | binds | 
2 | HA-tagged Fortilin deletion mutant, amino acids 5-172 (other, not shown: small tags and cut ends, Any added start methionine is not described) RDLISHDEMFSDIYKIREIADGLCLEVEGKMVSRTEGNIDDSLIGGNASAEGPEGEGTESTVITGVDIVMNHHLQETSFTKEAYKKYIKDYMKSIKGKLEEQRPERVKPFMTGAAEQIKHILANFKNYQFFIGENMNPDGMVALLDYREDGVTPYMIFFKDGLEMEKC |  |  |  | binds | 
3 | HA-tagged Fortilin deletion mutant, amino acids 23-172 (other, not shown: small tags and cut ends, Any added start methionine is not described) IADGLCLEVEGKMVSRTEGNIDDSLIGGNASAEGPEGEGTESTVITGVDIVMNHHLQETSFTKEAYKKYIKDYMKSIKGKLEEQRPERVKPFMTGAAEQIKHILANFKNYQFFIGENMNPDGMVALLDYREDGVTPYMIFFKDGLEMEKC |  |  |  |  | no binding
4 | HA-tagged Fortilin deletion mutant, amino acids 46-172 (other, not shown: small tags and cut ends, Any added start methionine is not described) SLIGGNASAEGPEGEGTESTVITGVDIVMNHHLQETSFTKEAYKKYIKDYMKSIKGKLEEQRPERVKPFMTGAAEQIKHILANFKNYQFFIGENMNPDGMVALLDYREDGVTPYMIFFKDGLEMEKC |  |  |  |  | no binding
